B1: MYBL2 (parent)
chain: FSPSQFLNFWNKQDTLELESPSLT

Variants of: B1
Test: protein stability index of a GFP-peptide fusion (GPS, HEK-293T) (PSI 1-6); higher = more stable
Conditions: c terminus: a fixed tail appended
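Also: lentivirally expressed fusions sorted by FACS into six bins by GFP to DsRed ratio, PSI derived from sequencing read proportions per bin multiplied by bin number.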

Variant | protein stability index
FSPSQFLNFWNPQDTLELESPSLT | 3.55
FSPSQFLNFWNNQDTLELESPSLT | 2.84
FSPSQFLNFWNMQDTLELESPSLT | 3.42
FSPSQFLNFWNFQDTLELESPSLT | 2.97
FSPSQFLNFWNEQDTLELESPSLT | 2.25
FSPSQFLNFWNGQDTLELESPSLT | 4.46
FSPSQFLNFWNYQDTLELESPSLT | 3.78
FSPSQFLNFWNIQDTLELESPSLT | 3.21
FSPSQFLNFWNDQDTLELESPSLT | 3.15
FSPSQFLNFWNAQDTLELESPSLT | 2.9
FSPSQFLNFWNHQDTLELESPSLT | 2.4
FSPSQFLNFWNVQDTLELESPSLT | 4.37
FSPSQFLNFWNRQDTLELESPSLT | 2.52
FSPSQFLNFWNTQDTLELESPSLT | 2.59
FSPSQFLNFWNSQDTLELESPSLT | 2.02
FSPSQFLNFWNQQDTLELESPSLT | 1.93
FSPSQFLNFWAKQDTLELESPSLT | 1.4
FSPSQFLNFWRKQDTLELESPSLT | 2.48
FSPSQFLNFWFKQDTLELESPSLT | 2.14
FSPSQFLNFWPKQDTLELESPSLT | 2.51
FSPSQFLNFWDKQDTLELESPSLT | 3.14
FSPSQFLNFWGKQDTLELESPSLT | 2.56
FSPSQFLNFWEKQDTLELESPSLT | 2.73
FSPSQFLNFWIKQDTLELESPSLT | 2.5

Variant | protein stability index
FSPSQFLNFWQKQDTLELESPSLT | 2.77
FSPSQFLNFWTKQDTLELESPSLT | 2.79
FSPSQFLNFWYKQDTLELESPSLT | 3.26
FSPSQFLNFWLKQDTLELESPSLT | 3.89
FSPSQFLNFWSKQDTLELESPSLT | 2.99
FSPSQFLNFWCKQDTLELESPSLT | 4.67
FSPSQFLNFWNKFDTLELESPSLT | 2.17
FSPSQFLNFWNKHDTLELESPSLT | 3.41
FSPSQFLNFWNKWDTLELESPSLT | 3.25
FSPSQFLNFWNKIDTLELESPSLT | 4.44
FSPSQFLNFWNKYDTLELESPSLT | 3.56
FSPSQFLNFWNKRDTLELESPSLT | 1.21
FSPSQFLNFWNKPDTLELESPSLT | 2.06
FSPSQFLNFWNKDDTLELESPSLT | 3.51
FSPSQFLNFWNKTDTLELESPSLT | 2.4
FSPSQFLNFWNKNDTLELESPSLT | 3.24
FSPSQFLNFWNKVDTLELESPSLT | 2.94
FSPSQFLNFWNKADTLELESPSLT | 3.54
FSPSQFLNFWNKMDTLELESPSLT | 3.43
FSPSQFLNFWNKSDTLELESPSLT | 3.98
FSPSQFLNFWNKQDTAELESPSLT | 3.1
FSPSQFLNRWNKQDTLELESPSLT | 2.13
FSPSQFLNSWNKQDTLELESPSLT | 1.83
FSPSQFLNCWNKQDTLELESPSLT | 2.17

Variant | protein stability index
FSPSQFLNLWNKQDTLELESPSLT | 2.98
FSPSQFLNTWNKQDTLELESPSLT | 1.96
FSPSQFLNAWNKQDTLELESPSLT | 1.87
FSPSQFLNDWNKQDTLELESPSLT | 2.98
FSPSQFLNVWNKQDTLELESPSLT | 3.09
FSPSQFLNIWNKQDTLELESPSLT | 3.65
FSPSQFLNGWNKQDTLELESPSLT | 1.6
FSPSQFLNYWNKQDTLELESPSLT | 1.74
FSPSQFLNNWNKQDTLELESPSLT | 2.29
FSPSQFLNHWNKQDTLELESPSLT | 2.43
FSPSQFLNQWNKQDTLELESPSLT | 2.15
FSPSQFLNKWNKQDTLELESPSLT | 2.44
FSPSQFLNEWNKQDTLELESPSLT | 2.43
FSPSQFLNPWNKQDTLELESPSLT | 2.48
FSPSQFLNWWNKQDTLELESPSLT | 2.84
FSPSQFLNMWNKQDTLELESPSLT | 1.63
FSPSQFLNFWNKQATLELESPSLT | 2.94
FSPSQFLNFWNKQMTLELESPSLT | 2.63
FSPSQFLNFWNKQLTLELESPSLT | 2.6
FSPSQFLNFWNKQHTLELESPSLT | 2.39
FSPSQFLNFWNKQKTLELESPSLT | 4.25
FSPSQFLNFWNKQRTLELESPSLT | 4.08
FSPSQFLNFWNKQSTLELESPSLT | 1.31
FSPSQFLNFWNKQQTLELESPSLT | 2.89

Variant | protein stability index
FSPSQFLNFWNKQCTLELESPSLT | 4.04
FSPSQFLNFWNKQPTLELESPSLT | 2.98
FSPSQFLNFWNKQFTLELESPSLT | 3.92
FSPSQFLNFWNKQVTLELESPSLT | 3.22
FSPSQFLNFWNKQGTLELESPSLT | 2.94
FSPSQFLNFWNKQYTLELESPSLT | 3.5
FSPSQFLNFKNKQDTLELESPSLT | 2.8
FSPSQFLNFHNKQDTLELESPSLT | 2.77
FSPSQFLNFYNKQDTLELESPSLT | 2.63
FSPSQFLNFPNKQDTLELESPSLT | 3.45
FSPSQFLNFLNKQDTLELESPSLT | 2.06
FSPSQFLNFCNKQDTLELESPSLT | 2.5
FSPSQFLNFANKQDTLELESPSLT | 2.48
FSPSQFLNFRNKQDTLELESPSLT | 2.62
FSPSQFLNFVNKQDTLELESPSLT | 1.89
FSPSQFLNFFNKQDTLELESPSLT | 2.18
FSPSQFLNFNNKQDTLELESPSLT | 3.38
FSPSQFLNFSNKQDTLELESPSLT | 2.91
FSPSQFLNFENKQDTLELESPSLT | 3.51
FSPSQFLNFTNKQDTLELESPSLT | 2.98
FSPSQFLNFINKQDTLELESPSLT | 2.28
FSPSQFLNFQNKQDTLELESPSLT | 3.5
FSPSQFLNFGNKQDTLELESPSLT | 2.93
FSPSQFLNFDNKQDTLELESPSLT | 3.87

Variant | protein stability index
FSPSQFLNFMNKQDTLELESPSLT | 2.17
FSPSQFLNFWNKQDQLELESPSLT | 1.82
FSPSQFLNFWNKQDRLELESPSLT | 2.54
FSPSQFLNFWNKQDKLELESPSLT | 2.68
FSPSQFLNFWNKQDWLELESPSLT | 3.33
FSPSQFLNFWNKQDILELESPSLT | 2.92
FSPSQFLNFWNKQDELELESPSLT | 2.4
FSPSQFLNFWNKQDCLELESPSLT | 2.54
FSPSQFLNFWNKQDLLELESPSLT | 3.22
FSPSQFLNFWNKQDMLELESPSLT | 3.12
FSPSQFLNFWNKQDDLELESPSLT | 2.09
FSPSQFLNFWNKQDNLELESPSLT | 3
FSPSQFLNFWNKQDALELESPSLT | 3.05
FSPSQFLNFWNKQDFLELESPSLT | 2.34
FSPSQFLNFWNKQDSLELESPSLT | 4.29
FSPSQFLNFWNKQDPLELESPSLT | 2.48
FSPSQFLNFWNKQDGLELESPSLT | 3.51
FSPSQFLNFWNKQDHLELESPSLT | 3.8
FSPSQFLNFWNKQDYLELESPSLT | 1.38
FSPSQFLWFWNKQDTLELESPSLT | 2.9
FSPSQFLIFWNKQDTLELESPSLT | 4.12
FSPSQFLSFWNKQDTLELESPSLT | 3.58
FSPSQFLLFWNKQDTLELESPSLT | 3.22
FSPSQFLDFWNKQDTLELESPSLT | 2.08

Variant | protein stability index
FSPSQFLKFWNKQDTLELESPSLT | 2.74
FSPSQFLRFWNKQDTLELESPSLT | 2.93
FSPSQFLYFWNKQDTLELESPSLT | 2.06
FSPSQFLQFWNKQDTLELESPSLT | 2.17
FSPSQFLMFWNKQDTLELESPSLT | 3.6
FSPSQFLAFWNKQDTLELESPSLT | 3.07
FSPSQFLPFWNKQDTLELESPSLT | 2.91
FSPSQFLFFWNKQDTLELESPSLT | 4.01
FSPSQFLVFWNKQDTLELESPSLT | 3.44
FSPSQFLTFWNKQDTLELESPSLT | 3.92
FSPSKFLNFWNKQDTLELESPSLT | 2.44
FSPSSFLNFWNKQDTLELESPSLT | 2.83
FSPSHFLNFWNKQDTLELESPSLT | 2.79
FSPSNFLNFWNKQDTLELESPSLT | 2.27
FSPSMFLNFWNKQDTLELESPSLT | 2.95
FSPSWFLNFWNKQDTLELESPSLT | 2.86
FSPSTFLNFWNKQDTLELESPSLT | 3.6
FSPSAFLNFWNKQDTLELESPSLT | 2.55
FSPSCFLNFWNKQDTLELESPSLT | 3.02
FSPSDFLNFWNKQDTLELESPSLT | 2.75
FSPSYFLNFWNKQDTLELESPSLT | 2.29
FSPSRFLNFWNKQDTLELESPSLT | 2.6
FSPSFFLNFWNKQDTLELESPSLT | 2.31
FSPSGFLNFWNKQDTLELESPSLT | 3.07

Variant | protein stability index
FSPSPFLNFWNKQDTLELESPSLT | 3.49
FSPSQFCNFWNKQDTLELESPSLT | 3.24
FSPSQFPNFWNKQDTLELESPSLT | 2.25
FSPSQFKNFWNKQDTLELESPSLT | 2.97
FSPSQFNNFWNKQDTLELESPSLT | 3.1
FSPSQFGNFWNKQDTLELESPSLT | 2.59
FSPSQFVNFWNKQDTLELESPSLT | 3.57
FSPSQFINFWNKQDTLELESPSLT | 3.39
FSPSQFRNFWNKQDTLELESPSLT | 2.38
FSPSQFWNFWNKQDTLELESPSLT | 2.38
FSPSQFMNFWNKQDTLELESPSLT | 3.04
FSPSQFFNFWNKQDTLELESPSLT | 2.6
FSPSQFTNFWNKQDTLELESPSLT | 3.42
FSPSQFYNFWNKQDTLELESPSLT | 2.76
FSPSQFQNFWNKQDTLELESPSLT | 2.92
FSPSQFANFWNKQDTLELESPSLT | 3.29
FSPSQFHNFWNKQDTLELESPSLT | 3.34
FSPSQPLNFWNKQDTLELESPSLT | 3
FSPSQALNFWNKQDTLELESPSLT | 2.02
FSPSQNLNFWNKQDTLELESPSLT | 2.21
FSPSQDLNFWNKQDTLELESPSLT | 2.59
FSPSQCLNFWNKQDTLELESPSLT | 1.61
FSPSQRLNFWNKQDTLELESPSLT | 3.66
FSPSQSLNFWNKQDTLELESPSLT | 2.31

Variant | protein stability index
FSPSQVLNFWNKQDTLELESPSLT | 2.39
FSPSQKLNFWNKQDTLELESPSLT | 2.86
FSPSQLLNFWNKQDTLELESPSLT | 4.19
FSPSQTLNFWNKQDTLELESPSLT | 1.5
FSPSQWLNFWNKQDTLELESPSLT | 2.7
FSPSQHLNFWNKQDTLELESPSLT | 2.6
FSPSQQLNFWNKQDTLELESPSLT | 3.08
FSPSQELNFWNKQDTLELESPSLT | 4
FSPKQFLNFWNKQDTLELESPSLT | 2.53
FSPMQFLNFWNKQDTLELESPSLT | 3.27
FSPPQFLNFWNKQDTLELESPSLT | 2.14
FSPVQFLNFWNKQDTLELESPSLT | 2.57
FSPIQFLNFWNKQDTLELESPSLT | 4.06
FSPYQFLNFWNKQDTLELESPSLT | 2.98
FSPNQFLNFWNKQDTLELESPSLT | 3.63
FSPQQFLNFWNKQDTLELESPSLT | 4.58
FSPHQFLNFWNKQDTLELESPSLT | 2
FSPLQFLNFWNKQDTLELESPSLT | 2.12
FSPTQFLNFWNKQDTLELESPSLT | 3.36
FSPWQFLNFWNKQDTLELESPSLT | 2.35
